# Laboratory results taken from article doi:10.1101/2025.04.08.647777 (bioRxiv, 2025).
# B1: GST-CSN7A (natural protein)
# chain: MSAEVKVTGQNQEQFLLLAKSAKGAALATLIHQVLEAPGVYVFGELLDMPNVRELAESDFASTFRLLTVFAYGTYADYLAEARNLPPLTEAQKNKLRHLSVVTLAAKVKCIPYAVLLEALALRNVRQLEDLVIEAVYADVLRGSLDQRNQRLEVDYSIGRDIQRQDLSAIARTLQEWCVGCEVVLSGIEEQVSRANQHKEQQLGLKQQIESEVANLKKTIKVTTAAAAAATSQDPEQHLTELREPAPGTNQRQPSKKASKGKGLRGSAKIWSKSN
# Biological target: MBP-DIC1 (UniProt O14576 1-645)
# Experiment: pull-down
# MBP-DIC1, sequence (O14576 whole entry): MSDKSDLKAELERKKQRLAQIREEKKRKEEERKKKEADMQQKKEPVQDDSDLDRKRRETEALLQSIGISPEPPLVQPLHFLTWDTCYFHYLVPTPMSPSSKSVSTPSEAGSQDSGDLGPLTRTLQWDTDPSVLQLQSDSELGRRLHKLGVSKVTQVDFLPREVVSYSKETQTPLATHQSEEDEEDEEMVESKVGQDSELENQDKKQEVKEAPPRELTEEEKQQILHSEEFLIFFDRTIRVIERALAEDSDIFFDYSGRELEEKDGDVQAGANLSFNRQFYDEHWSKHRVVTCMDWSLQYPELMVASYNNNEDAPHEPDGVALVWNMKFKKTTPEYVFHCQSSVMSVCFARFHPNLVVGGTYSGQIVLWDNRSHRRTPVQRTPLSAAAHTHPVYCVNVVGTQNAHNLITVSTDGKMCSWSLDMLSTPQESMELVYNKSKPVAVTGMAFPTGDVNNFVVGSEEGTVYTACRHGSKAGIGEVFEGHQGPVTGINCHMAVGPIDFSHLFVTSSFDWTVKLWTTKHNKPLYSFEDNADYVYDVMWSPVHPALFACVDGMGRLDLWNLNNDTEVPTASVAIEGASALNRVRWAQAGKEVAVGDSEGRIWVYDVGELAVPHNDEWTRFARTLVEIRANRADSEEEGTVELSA
binder,measurement,value
B1,binding result,binds
